Measured values published in patent US11786578B2, “Modified relaxin polypeptides and their uses” (AMBRX, INC., priority 2010, dated 2023).
Read-outs that look alike come from different tables or passages of the source. Non-standard residues stand in square brackets, D forms with d. No end group written: not given here. Phe(4-Ac) = CC(=O)c1ccc(C[C@H](N)C(=O)O)cc1

Key:
human RXFP4 [1] = biological target: T1, human RXFP4 (Homo sapiens, UniProt Q8TDU9); experiment: Inhibition of forskolin-induced cAMP in human RXFP4/CHO-K1 stable line; type: cell-based
T1 construct: expressed in transfected cells
From the text: (§1) The RXFP cDNAs, RXFP family members, as well as species orthologs, were obtained from commercially available cDNA clones or amplified from tissue RNAs as follows. Human RXFP1: A cDNA clone was obtained from OpenBiosystems (MHS4426-99239031. Human RXFP2: A cDNA clone for transcript variant 1 was obtained from OpenBiosystems (OHS4559-99620528). Cynomolgus monkey RXFP1: The cDNA was cloned out of Mauritian cyno brain RNA by RT-PCR using the following primers: forward: 5′-[…]-3′ (SEQ ID NO: 37); reverse: 5′-[…]-3′ (SEQ ID NO: 38). Dog RXFP1: The cDNA was cloned out of dog brain RNA by RT-PCR using the following primers: forward: 5′-[…]-3′ (SEQ ID NO: 39); reverse: 5′-[…]-3′ (SEQ ID NO: 40). Rat RXFP1: The cDNA was cloned out of Sprague Dawley rat brain RNA by RT-PCR using the following primers: forward: 5′-[…]-3′ (SEQ ID NO: 41); reverse: 5′-[…]-3 (SEQ ID NO: 42)′. Human RXFP3: A Gateway entry clone in vector pDONR221 was obtained from Invitrogen (IOH28381). Human RXFP4: A Gateway entry clone in vector pDONR201 was obtained. Mouse RXFP1: A Gateway entry clone in vector pDONR223 was obtained from OpenBiosystems (OMM4760-101549000). Using standard procedures (Gateway LR recombination), the RXFP entry clones were transferred into expression vector pEF-DEST51 (Invitrogen). In contrast to the all other RXFP clones, human RXFP4 was transferred into pcDNA3.1 (Invitrogen). For each construct, the RXFP cDNA, as well as its proper insertion into the expression vector, was verified by DNA sequencing.
CHO-K1 cells (ATCC #CRL-9618) were prepared for stable line generation by propagating at 37° C. with 5% CO2 in F-12 plus GlutaMAX-I medium (GIBCO #31765) supplemented with 10% fetal bovine heat-inactivated serum (Invitrogen #16140), and 1× Antibiotic-Antimycotic (GIBCO #15240-096). CHO-K1 cells were transfected with 12 μg of the appropriate expression construct plasmid using the FuGENE® 6 reagent (Roche #11814443 001) and the protocol provided by the manufacturer. One day post-transfection cells were replated into medium containing 10 μg of Blasticidin S HCl per mL (GIBCO #A11139-02). […]

human RXFP3 [2] = biological target: T2, human RXFP3 (Homo sapiens, UniProt Q9NSD7); settings: literature value; read-out: EC50 value reported in the literature, human RXFP3; cited from earlier work
T2 sequence (Q9NSD7 1-469): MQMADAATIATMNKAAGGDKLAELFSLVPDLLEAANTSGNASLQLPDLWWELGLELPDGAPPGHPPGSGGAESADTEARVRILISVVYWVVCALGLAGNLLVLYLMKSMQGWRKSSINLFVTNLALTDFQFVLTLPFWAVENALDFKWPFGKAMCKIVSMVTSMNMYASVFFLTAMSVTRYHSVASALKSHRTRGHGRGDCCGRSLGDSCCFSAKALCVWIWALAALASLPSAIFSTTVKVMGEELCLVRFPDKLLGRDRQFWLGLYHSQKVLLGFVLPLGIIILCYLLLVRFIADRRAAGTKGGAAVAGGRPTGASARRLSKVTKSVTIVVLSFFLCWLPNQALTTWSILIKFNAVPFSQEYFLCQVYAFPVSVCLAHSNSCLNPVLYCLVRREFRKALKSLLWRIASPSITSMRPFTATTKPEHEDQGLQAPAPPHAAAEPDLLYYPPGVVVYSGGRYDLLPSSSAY

human RXFP4 [3] = biological target: T1, human RXFP4; settings: literature value; read-out: EC50 value reported in the literature, human RXFP4; cited from earlier work
human RXFP3 [4] = biological target: T2, human RXFP3; experiment: Inhibition of forskolin-induced cAMP in human RXFP3/CHO-K1 stable line; type: cell-based; settings: CHO-K1 stable line
From the text: as §1, with “For each construct, the RXFP cDNA, as well as its proper insertion into the expression vector, was verified by DNA sequencing.” left out

[5] = PK of 20 kDa PEGylated relaxin polypeptides after a single subcutaneous injection in SD rats (Example 40); type: in vivo, Sprague-Dawley (SD) rats; settings: for AUCinf / CL (mL/hr) / Cmax / MRT / Tmax / Vz / Terminal HL / Mean serum Conc.: 0.5 mg/kg SC; for AUCinf / CL (mL/hr) / Cmax / MRT / Tmax / Vz / Terminal HL: SD rats; for Terminal HL: non-compartmental; for Mean serum Conc.: male SD rats; for In vivo PK Term HL: 20K PEG
From the text: This example evaluates the pharmacokinetic properties of 20 kDa PEGylated relaxin polypeptides following a single subcutaneous injection in SD rats.
1st order elimination model and Gauss-Newton (Levenberg-Hartley) model fit equation. […] FIG. 8A-8/compares group mean serum concentration versus time for all PEG-Relaxin compounds dosed. All dose groups had measurable serum PEG-Relaxin levels.

T1 sequence (Q8TDU9 whole entry): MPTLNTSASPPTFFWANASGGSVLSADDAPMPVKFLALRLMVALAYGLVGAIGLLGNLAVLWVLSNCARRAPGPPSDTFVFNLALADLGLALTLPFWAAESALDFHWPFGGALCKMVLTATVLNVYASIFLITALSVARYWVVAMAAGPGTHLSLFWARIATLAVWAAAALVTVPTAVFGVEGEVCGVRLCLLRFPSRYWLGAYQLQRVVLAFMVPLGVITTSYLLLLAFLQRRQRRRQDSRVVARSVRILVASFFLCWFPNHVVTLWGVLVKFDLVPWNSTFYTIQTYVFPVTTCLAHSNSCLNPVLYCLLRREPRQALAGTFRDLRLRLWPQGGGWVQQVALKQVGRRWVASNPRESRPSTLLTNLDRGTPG

Substance | AUCinf [5] | CL (mL/hr) [5] | Cmax [5] | MRT [5] | Tmax [5] | Vz [5] | Terminal HL [5] | Mean serum Conc. ([5]; 1 hr) | Mean serum Conc. ([5]; 2 hr) | Mean serum Conc. ([5]; 4 hr) | Mean serum Conc. ([5]; 8 hr) | Mean serum Conc. ([5]; 12 hr) | Mean serum Conc. ([5]; 25 hr) | Mean serum Conc. ([5]; 34 hr) | Mean serum Conc. ([5]; 50 hr) | Mean serum Conc. ([5]; 58 hr) | Mean serum Conc. ([5]; 73 hr) | Mean serum Conc. ([5]; 80 hr) | Mean serum Conc. ([5]; pre-dose (PD)) | In vivo PK Term HL [5] | further results
H3-RLX: H3-relaxin, the endogenous ligand for RXFP3 and RXFP4 receptors, positive control | – | – | – | – | – | – | – | – | – | – | – | – | – | – | – | – | – | – | – | – | Maximal inhibition of forskolin-induced cAMP, human RXFP4 (partial agonist activity) (human RXFP4 [1]): ~40%; EC50 (human RXFP4 [1]; CHO-K1 stable line, inhibition of forskolin-induced cAMP): 2.8 ± 1.5 nM; EC50 (human RXFP3 [2]): 0.4 nM; EC50 (human RXFP4 [3]): 1.1 nM; EC50 (human RXFP3 [4]): 0.6 nM
RLX-A-AA5-20KPEG-001: relaxin variant, B1 Ala, pAF at A chain position A5, 20K PEGylated (chain 1 QLYSXLANKCCHVGCTKRSLARFC; chain 2 ASWMEEVIKLCGRELVRAQIAICGMSTWS; not fully specified; non-natural residues) | 16095.9 ng·h/mL | 0.518 mL/min/kg | 438.0 ng/mL | 29.4 h | 25.0 h | 0.5474 L/kg | 12.2 h | 19.9 ng/mL | 100.1 ng/mL | 185.0 ng/mL | 264.7 ng/mL | 434.3 ng/mL | 438.0 ng/mL | 353.5 ng/mL | 86.9 ng/mL | 62.4 ng/mL | 32.8 ng/mL | 22.1 ng/mL | BQL | 12.2 h | –
RLX-A-AR18-20KPEG-001: relaxin variant, B1 Ala, pAF at A chain position R18, 20K PEGylated (chain 1 QLYSALANKCCHVGCTKXSLARFC; chain 2 ASWMEEVIKLCGRELVRAQIAICGMSTWS; not fully specified; non-natural residues) | 12985.5 ng·h/mL | 0.64 mL/min/kg | 345.9 ng/mL | 27.7 h | 25.0 h | 0.6947 L/kg | 12.5 h | 33.9 ng/mL | 109.7 ng/mL | 172.7 ng/mL | 270.5 ng/mL | 332.5 ng/mL | 398.6 ng/mL | 264.3 ng/mL | 76.7 ng/mL | 61.8 ng/mL | 25.0 ng/mL | 14.9 ng/mL | BQL | 12.5 h | –
RLX-A-AV13-20KPEG-001: relaxin variant, B1 Ala, pAF substituted for valine 13 in the A chain, 20K PEG attached (chain 1 QLYSALANKCCHXGCTKRSLARFC; chain 2 ASWMEEVIKLCGRELVRAQIAICGMSTWS; not fully specified; non-natural residues) | 32230.5 ng·h/mL | 0.258 mL/min/kg | 742.5 ng/mL | 32.7 h | 25.0 h | 0.3254 L/kg | 14.6 h | 44.9 ng/mL | 138.9 ng/mL | 345.7 ng/mL | 533.6 ng/mL | 630.1 ng/mL | 742.5 ng/mL | 540.7 ng/mL | 320.9 ng/mL | 209.4 ng/mL | 75.0 ng/mL | 58.7 ng/mL | BQL | – | –
RLX-A-BV7-20KPEG-001: relaxin variant, B1 Ala, pAF at B chain position V7, 20K PEGylated (chain 1 QLYSALANKCCHVGCTKRSLARFC; chain 2 ASWMEE[Phe(4-Ac)](PEG 20 kDa)IKLCGRELVRAQIAICGMSTWS; not fully specified (bridges); ends and bridges not checked) | 17260.9 ng·h/mL | 0.482 mL/min/kg | 471.6 ng/mL | 27.9 h | 12.0 h | 0.5469 L/kg | 13.1 h | 25.7 ng/mL | 98.9 ng/mL | 248.5 ng/mL | 343.5 ng/mL | 457.3 ng/mL | 518.5 ng/mL | 270.4 ng/mL | 104.0 ng/mL | 63.5 ng/mL | 26.0 ng/mL | 22.6 ng/mL | BQL | 13.1 h | –
RLX-A-BW28-20KPEG-001: relaxin variant, B1 Ala, pAF at B chain position W28, 20K PEGylated (chain 1 QLYSALANKCCHVGCTKRSLARFC; chain 2 ASWMEEVIKLCGRELVRAQIAICGMST[Phe(4-Ac)](PEG 20 kDa)S; not fully specified (bridges); ends and bridges not checked) | 22191.2 ng·h/mL | 0.375 mL/min/kg | 511.0 ng/mL | 31.1 h | 25.0 h | 0.4526 L/kg | 13.9 h | 36.4 ng/mL | – | 228.5 ng/mL | 380.9 ng/mL | 486.6 ng/mL | 511.0 ng/mL | 404.8 ng/mL | 184.2 ng/mL | 122.3 ng/mL | 48.8 ng/mL | 37.1 ng/mL | BQL | 13.9 h | –
